Measured values: patent US20170247475A1 (Boehringer Ingelheim, published 2017)
Residue numbers refer to the chain shown, from its start.

B1: VEGFBII23B04 (VHH)
VHH: EVQLVESGGGLVQTGDSLRLSCEVSGRTFSSYSMGWFRQAQGKEREFVVAISKGGYKYDSVSLEGRFTISKDNAKNTVYLQINSLKPEDTAVYYCASSRAYGSSRLRLADTYEYWGQGTQVTVSS
notes: also called VEGFBII23B4; VEGFBII23B04 (wt)
B2: VEGFBII038 (VHH)
VHH: B1 VHH with E1D, T14P, D16G, E23A, V24A, Q41P, S60A, K71R, K86R, Q120L
notes: also called VEGFBII0038; VEGFBII00038

Columns and labels:
[1] = target: T1, recombinant human VEGF165 (human, UniProt P15692-4 27-191); assay: hVEGF165/hVEGFR2-Fc competition AlphaScreen
T1 construct: also called hVEGF165; rhVEGF165
Experimental: (§1) Finally, streptavidin donor beads (20 μg/ml) are added and after 1 hour of incubation in the dark, fluorescence is measured on the Envision microplate reader.
Target sequence in this assay (P15692 other isoform, or with tags, fused parts or gaps limits assumed): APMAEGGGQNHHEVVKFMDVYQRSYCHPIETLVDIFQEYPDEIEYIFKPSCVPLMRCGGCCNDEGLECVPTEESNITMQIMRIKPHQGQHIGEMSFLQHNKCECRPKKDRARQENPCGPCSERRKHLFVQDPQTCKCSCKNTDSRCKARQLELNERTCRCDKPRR

[2] = target: T1, recombinant human VEGF165; assay: VEGF165/VEGFR2 AlphaScreen
Target sequence in this assay (P15692 other isoform, or with tags, fused parts or gaps limits assumed): as above

[3] = target: T1, recombinant human VEGF165; assay: kd1; SPR Biacore T100, hVEGF165 on chip, Two State Reaction model
Experimental: (§2) Samples are injected for 2 min and allowed to dissociate up to 20 min at a flow rate of 45 μI/min. In between sample injections, the chip surface is regenerated with 100 mM HCl. HBS-EP+(Hepes buffer pH7.4+EDTA) is used as running buffer. Binding curves are fitted using a Two State Reaction model by Biacore T100 Evaluation Software v2.0.1.
(§3) ^{(a)}Heterogeneous binding curve resulting in no 1:1 fit, curves are fitted using a Two State Reaction model by Biacore T100 Evaluation Software v2.0.1

[4] = target: T1, recombinant human VEGF165; assay: hVEGF165/hVEGFR1-Fc competition AlphaScreen
Experimental: as §1
Target sequence in this assay (P15692 other isoform, or with tags, fused parts or gaps limits assumed): as above

[5] = target: T1, recombinant human VEGF165; assay: SPR Biacore T100, hVEGF165 on chip, Two State Reaction model
Experimental: as §2, §3
Target sequence in this assay (P15692 other isoform, or with tags, fused parts or gaps limits assumed): as above

[6] = target: T1, recombinant human VEGF165; assay: AlphaScreen competition, 0.05 nM hVEGF165 and 0.05 nM hVEGFR2-Fc; blocked: hVEGFR2-Fc
Target sequence in this assay (P15692 other isoform, or with tags, fused parts or gaps limits assumed): as above

[7] = target: T1, recombinant human VEGF165; assay: competition AlphaScreen, blocking of hVEGF165 binding to hVEGFR1-Fc
[8] = target: T1, recombinant human VEGF165; assay: as above; remark: listed apart in the source
Target sequence in this assay (P15692 other isoform, or with tags, fused parts or gaps limits assumed): as above

[9] = target: T1, recombinant human VEGF165; assay: AlphaScreen competition, 0.05 nM hVEGF165 and 0.05 nM hVEGFR1-Fc; blocked: hVEGFR1-Fc
[10] = target: T1, recombinant human VEGF165; assay: as above; remark: listed apart in the source
[11] = target: T1, recombinant human VEGF165; assay: AlphaScreen competition, 0.05 nM hVEGF165 and 0.05 nM hVEGFR2-Fc; blocked: hVEGFR2-Fc; remark: listed apart in the source
[12] = target: T1, recombinant human VEGF165; assay: as above; remark: listed apart in the source
[13] = target: T1, recombinant human VEGF165; assay: AlphaScreen competition, 0.05 nM hVEGF165 and 0.05 nM hVEGFR1-Fc; blocked: hVEGFR1-Fc; remark: listed apart in the source

| % inhibition [1] [%] | IC50 [1] [nM] | % inhibition [2] [%] | IC50 [2] [nM] | koff [3] [s⁻¹] | % inhibition [4] [%] | IC50 [4] [nM] | Kd [5] [nM] | kd2 [5] [s⁻¹] | IC50 (read off the curve) [6] [nM] | IC50 (read off the curve) [7] [nM] | IC50 (read off the curve) [8] [nM] | IC50 (read off the curve) [9] [nM] | IC50 (read off the curve) [10] [nM] | IC50 (read off the curve) [11] [nM] | IC50 (read off the curve) [12] [nM] | IC50 (read off the curve) [13] [nM] | Binder |
| --- | --- | --- | --- | --- | --- | --- | --- | --- | --- | --- | --- | --- | --- | --- | --- | --- | --- |
| 100 | 0.16 | 100 | 0.169 | 0.0086 | 41 | 0.9 | 0.7 | 0.00024 |  |  |  |  |  |  |  |  | B1 |
|  |  |  |  |  |  |  |  |  | ~0.2 | ~0.4 | ~0.4 | ~0.5 | ~0.5 | ~0.4 | ~0.2 | ~0.8 | B2 |
